Where only a bound is given, the exact number is not on record here.

The target of one assay is HIV-1 integrase (IN) (HIV-1).
Assay: not given
Take peptide 1a (FIHFRIG): the 3'-P IC50 (in vitro IN 3'-processing assay) turned out to be 17.6 µM and the ST IC50 (in vitro IN strand transfer assay) stood at 1.3 µM.
Substance peptide 2a (FIHFRIA) yielded a 3'-P IC50 (in vitro IN 3'-processing assay) of over 111 µM and an ST IC50 (in vitro IN strand transfer assay) of 34.7 µM.
Consider peptide 2b (FIHFRIA-amide), for which the 3'-P IC50 (in vitro IN 3'-processing assay) was over 111 µM and the ST IC50 (in vitro IN strand transfer assay) is 60.6 µM.
The matching figures for peptide 2c (Ac-FIHFRIA-amide): 74.5 µM and 30.4 µM.
Turning to peptide 3a (FIHFRAG), the 3'-P IC50 (in vitro IN 3'-processing assay) turned out to be 66.5 µM and the ST IC50 (in vitro IN strand transfer assay) came out at 22.4 µM.
The matching figures for peptide 3b (FIHFRAG-amide): over 111 µM and over 111 µM.
The matching figures for peptide 3c (Ac-FIHFRAG-amide): 208 µM and 28 µM.
The matching figures for peptide 4a (FIHFAIG): over 111 µM and over 111 µM.
peptide 4b (FIHFAIG-amide): the 3'-P IC50 (in vitro IN 3'-processing assay) was over 111 µM and the ST IC50 (in vitro IN strand transfer assay) was over 111 µM.
peptide 4c (Ac-FIHFAIG-amide) returned a 3'-P IC50 (in vitro IN 3'-processing assay) of over 333 µM and an ST IC50 (in vitro IN strand transfer assay) of 81 µM.
Turning to peptide 5a (FIHARIG), the 3'-P IC50 (in vitro IN 3'-processing assay) is over 111 µM and the ST IC50 (in vitro IN strand transfer assay) was 46.6 µM.
Taken in the same sequence, the figures for peptide 5b (FIHARIG-amide) were over 111 µM and over 111 µM.
Taken in the same sequence, the figures for peptide 5c (Ac-FIHARIG-amide) were over 333 µM and 117 µM.
For the substance peptide 6a (FIAFRIG), the 3'-P IC50 (in vitro IN 3'-processing assay) is 17.4 µM and the ST IC50 (in vitro IN strand transfer assay) came out at 6.7 µM.
Taken in the same sequence, the figures for peptide 6b (FIAFRIG-amide) were 95.4 µM and 35 µM.
Taken in the same sequence, the figures for peptide 6c (Ac-FIAFRIG-amide) were 94 µM and 3.5 µM.
Taken in the same sequence, the figures for peptide 7a (FAHFRIG) were over 111 µM and 73.5 µM.
In turn, peptide 7b (FAHFRIG-amide) came in with a 3'-P IC50 (in vitro IN 3'-processing assay) of over 111 µM and an ST IC50 (in vitro IN strand transfer assay) of over 111 µM.
On to peptide 7c (Ac-FAHFRIG-amide), for which the 3'-P IC50 (in vitro IN 3'-processing assay) was over 333 µM and the ST IC50 (in vitro IN strand transfer assay) amounted to 127 µM.
For peptide 8a (AIHFRIG), the 3'-P IC50 (in vitro IN 3'-processing assay) came out at 86.3 µM and the ST IC50 (in vitro IN strand transfer assay) was 22.7 µM.
For peptide 8b (AIHFRIG-amide), the 3'-P IC50 (in vitro IN 3'-processing assay) was over 111 µM and the ST IC50 (in vitro IN strand transfer assay) is over 111 µM.
In turn, peptide 8c (Ac-AIHFRIG-amide) displayed a 3'-P IC50 (in vitro IN 3'-processing assay) of over 333 µM and an ST IC50 (in vitro IN strand transfer assay) of 46 µM.
peptide 9a (FIHFRBG) came in with a 3'-P IC50 (in vitro IN 3'-processing assay) of 20 µM and an ST IC50 (in vitro IN strand transfer assay) of 4.3 µM.
Taken in the same sequence, the figures for peptide 10a (FIHFBIG) were over 333 µM and 48 µM.
Taken in the same sequence, the figures for peptide 11a (FIHBRIG) were 34 µM and 4.2 µM.
The matching figures for peptide 12a (FIBFRIG): 6.5 µM and 2.2 µM.
The substance peptide 13a (FBHFRIG) returned a 3'-P IC50 (in vitro IN 3'-processing assay) of 37 µM and an ST IC50 (in vitro IN strand transfer assay) of 20 µM.
Taken in the same sequence, the figures for peptide 14a (BIHFRIG) were 7.2 µM and 2.1 µM.
Taken in the same sequence, the figures for peptide 15 (Biotin-linker-BIHFRIG) were 32 µM and 2.3 µM.

For another assay, the target named is HIV-1 integrase (IN) (HIV-1). Description: cross-linking.
As a reminder, the stoichiometry N is a count of units in the complex or per binding partner. Substance peptide 15 (Biotin-linker-BIHFRIG) showed a stoichiometry N of 1.

For a further assay, the target named is HIV-1 integrase (IN) (HIV-1).
Assay: not given
This is another data set of the same source.
“Vpr (69–75) peptide with the amino-terminal Phe (Vpr69) replaced with Glu (from UniProt P12520 69-75)” returned a 3'-P IC50 (in vitro IN 3'-processing assay; data not shown) of over 111 µM and an ST IC50 (in vitro IN strand transfer assay; data not shown) of over 111 µM.

The values are drawn from paper PMC6222646, “HIV-1 Integrase-Targeted Short Peptides Derived from a Viral Protein R Sequence” (Molecules : A Journal of Synthetic Chemistry and Natural …, 2018).
